This note sets out measurements from article PMC9114370, “Heat shock protein Grp78/BiP/HspA5 binds directly to TDP-43 and mitigates toxicity associated with disease pathology” (Scientific Reports, 2022).

One may read the Kd as the constant that tells how readily two partners part at equilibrium.

“And” between values parts separate entries of the source, which are not always exact repeats. Equal entries are not always repeated.

Details in all cases: both partners purified
In assay [1] the target is T1, HspA5 substrate binding domain (SBD) (human, UniProt P11021 420-654).
T1 construct: SBD approximately 200 amino acids long; vector pSpeedET; also called HspA5-SBD; Grp78; source: E. coli BL21-Codon plus, purified (cobalt IMAC, TEV cleavage)
T1 sequence (P11021 420-654): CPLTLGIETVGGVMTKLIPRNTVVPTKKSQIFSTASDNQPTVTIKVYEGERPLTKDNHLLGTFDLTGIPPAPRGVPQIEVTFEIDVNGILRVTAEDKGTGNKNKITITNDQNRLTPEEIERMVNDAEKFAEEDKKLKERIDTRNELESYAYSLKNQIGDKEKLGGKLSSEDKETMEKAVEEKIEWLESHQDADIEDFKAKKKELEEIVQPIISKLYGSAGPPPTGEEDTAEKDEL
The experiment in a line: MST; NTA-labelled TDP-43(102-269), HspA5 titrated, in the presence of UG6 RNA (increasing concentrations; concentration not given).

In assay [2] the target is T1, HspA5 substrate binding domain (SBD). The experiment in a line: MST; 50 nM labelled TDP-43 construct (RED-NTA labelling), ranging concentrations of Hsp70 SBD titrated, MST buffer, premium capillaries, 40% LED, medium MST power; no RNA.
Assay [3] deals with T2, HspA1A substrate binding domain (SBD) (human, UniProt P0DMV8 395-641).
T2 construct: SBD approximately 200 amino acids long; vector pSpeedET; also called Hsp70 SBD; source: E. coli BL21-Codon plus, purified (cobalt IMAC, TEV cleavage)
T2 sequence (P0DMV8 395-641): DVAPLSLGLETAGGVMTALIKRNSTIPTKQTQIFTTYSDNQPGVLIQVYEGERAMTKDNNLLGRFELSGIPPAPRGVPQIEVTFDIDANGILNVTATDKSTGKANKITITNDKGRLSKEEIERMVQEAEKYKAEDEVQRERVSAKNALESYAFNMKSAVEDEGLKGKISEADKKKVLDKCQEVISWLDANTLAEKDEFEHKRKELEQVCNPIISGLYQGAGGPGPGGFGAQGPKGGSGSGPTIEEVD
Described as above.

B1: TDP43_(102-269)-His (domain or fragment, human, UniProt Q13148 102-269, looked up)
chain: KTSDLIVLGLPWKTTEQDLKEYFSTFGEVLMVQVKKDLKTGHSKGFGFVRFTEYETQVKVMSQRHMIDGRWCDCKLPNSKQSQDEPLRSRKVFVGRCTEDMTEDELREFFSQYGDVMDVFIPKPFRAFAFVTFADDQIAQSLCGEDLIIKGISVHISNAEPKHNSNRQ
modifications: labelled with Monolith Protein Labeling Kit RED-NTA
notes: also called RRM domain; RRM domains of TDP-43; source: recombinantly expressed, purified
Take B1: the dissociation constant (Kd) in assay [1] is 28300 nM; in assay [2] it was 298 nM and 890 nM; in assay [3], 2350 nM.
